Measured values from patent publication US20230272099A1 (Chugai, published 2023).

Tests used:
hCD137 (FXa digested) [1] = molecular target: T1, hCD137 (FXa digested) (human, UniProt Q07011 24-186); experiment: SPR 37C, no ATP
T1 construct: Factor Xa digestion and Protein A removed the Fc; also called human CD137 extracellular domain
Protocol: (§1) Measurements of human CD137 binding were taken at 37° C. using 20 mM ACES (pH 7.4), 150 mM NaCl, 2 mM MgCl₂, and 0.05% Tween20 as running buffer. At first, antibodies were captured by interacting antibody solutions prepared in running buffer with the rabbit anti-mouse IgG (Thermo Scientific)-immobilized Series S Sensor Chip CM5 (GE Healthcare). The human CD137-binding activity in the presence of ATP and in the absence of ATP was then assessed by interacting with a human CD137 solution prepared in running buffer supplemented with a desired concentration of ATP, or a human CD137 solution prepared in running buffer without ATP. […] The chip was regenerated using 25 mM NaOH and 10 mM Glycine-HCl (pH 1.5), and measurements were performed by repeatedly capturing antibodies. Dissociation constant (KD) of the respective antibodies for human CD137 was calculated using Biacore T200 Evaluation Software 2.0. Specifically, the association rate constant ka (L/mol/s) and the dissociation rate constant kd (1/s) were calculated by global fitting of the sensorgrams obtained by measurement with the 1:1 Langmuir binding model, and the dissociation constant KD (mol/L) was calculated from these values.

hCD137 (FXa digested) [2] = molecular target: T1, hCD137 (FXa digested); experiment: SPR 37C, 10 uM ATP
Protocol: as §1

hCD137 (FXa digested) [3] = molecular target: T1, hCD137 (FXa digested); experiment: SPR 37C, 1 uM ATP
Protocol: as §1

hCD137 (FXa digested) [4] = molecular target: T1, hCD137 (FXa digested); experiment: SPR 37C, 100 uM ATP
Protocol: as §1

T1 sequence (Q07011 other isoform, or with tags, fused parts or gaps limits assumed): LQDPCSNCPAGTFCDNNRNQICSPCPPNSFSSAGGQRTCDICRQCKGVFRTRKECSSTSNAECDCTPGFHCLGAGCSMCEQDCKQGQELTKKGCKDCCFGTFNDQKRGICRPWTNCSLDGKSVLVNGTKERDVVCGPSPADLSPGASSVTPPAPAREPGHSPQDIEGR

B1: 20H4.9-MB110/20H4.9LC-mk0 (antibody, mouse IgG1, kappa)
heavy: QVQLQQWGAGLLKPSETLSLTCAVYGGSFSGYYWSWIRQSPEKGLEWIGEINHGGYVTYNPSLESRVTISVDTSKNQFSLKLSSVTAADTAVYYCARDYGPGNYDWYFDLWGRGTLVTVSSAKTTPPSVYPLAPGSAAQTNSMVTLGCLVKGYFPEPVTVTWNSGSLSSGVHTFPAVLQSDLYTLSSSVTVPSSTWPSETVTCNVAHPASSTKVDKKIVPRDCGCKPCICTVPEVSDVFIFPPKPKDVLTITLTPKVTCVVVDISKDDPEVQFSWFVDDVEVHTAQTQPREEQFNSTFRSVSELPIMHQDWLNGKEFKCRVNSAAFPAPIEKTISKTKGRPKAPQVYTIPPPKEQMAKDKVSLTCMITDFFPEDITVEWQWNGQPAENYKNTQPIMDTDGSYFVYSKLNVQKSNWEAGNTFTCSVLHEGLHNHHTEKSLSHSPGK
light: EIVLTQSPATLSLSPGERATLSCRASQSVSSYLAWYQQKPGQAPRLLIYDASNRATGIPARFSGSGSGTDFTLTISSLEPEDFAVYYCQQRSNWPPALTFGGGTKVEIKRADAAPTVSIFPPSSEQLTSGGASVVCFLNNFYPKDINVKWKIDGSERQNGVLNSWTDQDSKDSTYSMSSTLTLTKDEYERHNSYTCEATHKTSTSPIVKSFNRNEC
notes: also called NS1-MB110
- Kd (hCD137 (FXa digested) [1]): 61 nM
- Kd (hCD137 (FXa digested) [2]): 53.9 nM
- Kd (hCD137 (FXa digested) [3]): 56.5 nM
- Kd (hCD137 (FXa digested) [4]): 51.9 nM

B2: 20H4.9-MB492/20H4.9LC-mk0 (antibody, mouse IgG1, kappa)
heavy: QVQLQQWGAGLLKPSETLSLTCAVYGGSFSGYYWSWIRQSPEKGLEWIGEINHGGYVTYNPSLESRVTISVDTSKNQFSLKLSSVTAADTAVYYCARDYGPGNYDWYFDLWGRGTLVTVSSAKTTPPSVYPLAPGSAAQTNSMVTLGCLVKGYFPEPVTVTWNSGSLSSGVHTFPAVLQSDLYTLSSSVTVPSSTWPSETVTCNVAHPASSTKVDKKIVPRDCGCKPCICEPNEVEDVFIFPPKPKDVLTITLTPKVTCVVVDISKDDPEVQFSWFVDDVEVHTAQTQPREEQFNSTFRSVSELPIMHQDWLNGKEFKCRVDSAAFPAPIEKTISKTKGRPKAPQVYTIPPPKEQMAKDKVSLTCMITDFFPEDITVEWQWNGQPAENYKNTQPIMDTDGSYFVYSKLNVQKSNWEAGNTFTCSVLHEGLHNHHTEKSLSHSPGK
light: EIVLTQSPATLSLSPGERATLSCRASQSVSSYLAWYQQKPGQAPRLLIYDASNRATGIPARFSGSGSGTDFTLTISSLEPEDFAVYYCQQRSNWPPALTFGGGTKVEIKRADAAPTVSIFPPSSEQLTSGGASVVCFLNNFYPKDINVKWKIDGSERQNGVLNSWTDQDSKDSTYSMSSTLTLTKDEYERHNSYTCEATHKTSTSPIVKSFNRNEC
notes: also called NS1-MB492
- Kd (hCD137 (FXa digested) [1]): 61.6 nM
- Kd (hCD137 (FXa digested) [2]): 53.5 nM
- Kd (hCD137 (FXa digested) [3]): 54.9 nM
- Kd (hCD137 (FXa digested) [4]): 50.4 nM

B3: 20H4.9-mIgG1/20H4.9LC-mk0 (antibody)
heavy: QVQLQQWGAGLLKPSETLSLTCAVYGGSFSGYYWSWIRQSPEKGLEWIGEINHGGYVTYNPSLESRVTISVDTSKNQFSLKLSSVTAADTAVYYCARDYGPGNYDWYFDLWGRGTLVTVSSAKTTPPSVYPLAPGSAAQTNSMVTLGCLVKGYFPEPVTVTWNSGSLSSGVHTFPAVLQSDLYTLSSSVTVPSSTWPSETVTCNVAHPASSTKVDKKIVPRDCGCKPCICTVPEVSSVFIFPPKPKDVLTITLTPKVTCVVVDISKDDPEVQFSWFVDDVEVHTAQTQPREEQFNSTFRSVSELPIMHQDWLNGKEFKCRVNSAAFPAPIEKTISKTKGRPKAPQVYTIPPPKEQMAKDKVSLTCMITDFFPEDITVEWQWNGQPAENYKNTQPIMDTDGSYFVYSKLNVQKSNWEAGNTFTCSVLHEGLHNHHTEKSLSHSPGK
light: EIVLTQSPATLSLSPGERATLSCRASQSVSSYLAWYQQKPGQAPRLLIYDASNRATGIPARFSGSGSGTDFTLTISSLEPEDFAVYYCQQRSNWPPALTFGGGTKVEIKRADAAPTVSIFPPSSEQLTSGGASVVCFLNNFYPKDINVKWKIDGSERQNGVLNSWTDQDSKDSTYSMSSTLTLTKDEYERHNSYTCEATHKTSTSPIVKSFNRNEC
notes: also called NS1-mIgG1
- Kd (hCD137 (FXa digested) [1]): 61.7 nM
- Kd (hCD137 (FXa digested) [2]): 54.4 nM
- Kd (hCD137 (FXa digested) [3]): 56.2 nM
- Kd (hCD137 (FXa digested) [4]): 53.6 nM
